Test results: US20210206825A1 (published 2021)

Legend:
Test in all cases: cell-based or functional assay
human c-Met on cells = human c-Met on cells (human, UniProt P08581 25-1390)
human EGFR on cells [1] = target: T1, human EGFR on cells (human, UniProt P00533 25-1210)
human EGFR on cells [2] = target: T1, human EGFR on cells; remark: listed apart in the source

Chain of human c-Met on cells (P08581 other isoform, or with tags, fused parts or gaps limits assumed): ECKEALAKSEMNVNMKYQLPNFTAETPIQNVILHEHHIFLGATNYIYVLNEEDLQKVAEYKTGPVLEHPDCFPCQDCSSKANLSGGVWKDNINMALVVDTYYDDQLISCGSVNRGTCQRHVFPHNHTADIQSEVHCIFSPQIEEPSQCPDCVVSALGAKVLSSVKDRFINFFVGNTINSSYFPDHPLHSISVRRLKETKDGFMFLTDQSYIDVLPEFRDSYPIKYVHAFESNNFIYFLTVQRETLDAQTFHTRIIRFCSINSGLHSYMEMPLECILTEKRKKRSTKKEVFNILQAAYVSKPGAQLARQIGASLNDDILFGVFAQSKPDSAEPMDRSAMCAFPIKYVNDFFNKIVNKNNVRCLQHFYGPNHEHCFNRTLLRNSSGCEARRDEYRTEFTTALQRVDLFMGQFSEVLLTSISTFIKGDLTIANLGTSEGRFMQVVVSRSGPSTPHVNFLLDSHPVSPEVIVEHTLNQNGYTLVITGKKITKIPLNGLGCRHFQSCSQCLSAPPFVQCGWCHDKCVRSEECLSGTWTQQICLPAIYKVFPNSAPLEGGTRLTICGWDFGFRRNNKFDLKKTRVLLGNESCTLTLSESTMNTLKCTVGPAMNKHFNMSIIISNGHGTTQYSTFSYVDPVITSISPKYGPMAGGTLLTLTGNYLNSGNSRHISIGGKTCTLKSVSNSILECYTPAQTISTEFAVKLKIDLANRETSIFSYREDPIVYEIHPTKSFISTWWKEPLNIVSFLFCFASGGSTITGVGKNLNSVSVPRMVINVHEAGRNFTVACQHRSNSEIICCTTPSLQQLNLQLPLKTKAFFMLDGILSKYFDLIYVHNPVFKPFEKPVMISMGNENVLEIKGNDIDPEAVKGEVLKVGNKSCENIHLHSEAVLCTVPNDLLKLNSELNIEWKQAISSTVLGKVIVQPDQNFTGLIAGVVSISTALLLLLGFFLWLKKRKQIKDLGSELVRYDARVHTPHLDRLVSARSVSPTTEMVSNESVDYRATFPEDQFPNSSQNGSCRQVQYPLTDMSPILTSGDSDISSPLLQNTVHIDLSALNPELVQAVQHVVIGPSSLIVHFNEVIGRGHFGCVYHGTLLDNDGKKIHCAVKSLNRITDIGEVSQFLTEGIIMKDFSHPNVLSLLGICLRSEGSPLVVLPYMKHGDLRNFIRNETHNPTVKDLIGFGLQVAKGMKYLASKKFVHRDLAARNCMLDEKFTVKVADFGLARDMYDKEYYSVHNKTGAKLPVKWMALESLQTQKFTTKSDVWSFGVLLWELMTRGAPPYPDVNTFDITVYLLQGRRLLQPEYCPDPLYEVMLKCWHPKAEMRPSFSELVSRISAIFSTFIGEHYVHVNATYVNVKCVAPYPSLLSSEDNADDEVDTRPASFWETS

Row | Binder | Phospho-EGFR IC50 (A431 cells, Tyr1173) (human EGFR on cells [1]) | further results
1 | P114AR5P74-A5 (designed binder, not shown: small tags and cut ends) LPAPKNLVVSRVTEDSARLSWTAPDAAFDSFWIRYDEVVVGGEAIVLTVPGSERSYDLTGLKPGTEYYVNILGVKGGSISVPLSAIFTT |  | inhibition of c-Met phosphorylation in NCI-H292 cells (IC50) (human c-Met on cells): 610 nM
2 | P53A1R5-17 (designed binder, not shown: small tags and cut ends) LPAPKNLVVSEVTEDSLRLSWADPHGFYDSFLIQYQESEKVGEAINLTVPGSERSYDLTGLKPGTEYTVSIYGVHNVYKDTNMRGLPLSAEFTT | > 2500 nM | 
3 | P54AR4-83 (designed binder, not shown: small tags and cut ends) LPAPKNLVVSEVTEDSLRLSWDDPWAFYESFLIQYQESEKVGEAINLTVPGSERSYDLTGLKPGTEYTVSIYGVHNVYKDTNMRGLPLSAEFTT | 18 nM | 
4 | P54AR4-48 (designed binder, not shown: small tags and cut ends) LPAPKNLVVSEVTEDSLRLSWDDPRGFYESFLIQYQESEKVGEAINLTVPGSERSYDLTGLKPGTEYTVSIYGVHNVYKDTNMRGLPLSAEFTT | 170 nM | 
5 | P54AR4-17 (designed binder, not shown: small tags and cut ends) LPAPKNLVVSEVTEDSLRLSWTYDRDGYDSFLIQYQESEKVGEAINLTVPGSERSYDLTGLKPGTEYTVSIYGVHNVYKDTNMRGLPLSAEFTT | 184 nM | 
6 | P54AR4-73 (designed binder, not shown: small tags and cut ends) LPAPKNLVVSEVTEDSLRLSWTWPYADLDSFLIQYQESEKVGEAINLTVPGSERSYDLTGLKPGTEYTVSIYGVHNVYKDTNMRGLPLSAEFTT | 141 nM | 
7 | ECB109 (designed binder, not shown: small tags and cut ends) MLPAPKNLVVSEVTEDSARLSWDDPHAFYESFLIQYQESEKVGEAIVLTVPGSERSYDLTGLKPGTEYTVSIYGVHNVYKDTNIRGLPLSAIFTTAPAPAPAPAPLPAPKNLVVSRVTEDSARLSWTAPDAAFDSFWIRYFEFLGSGEAIVLTVPGSERSYDLTGLKPGTEYVVNILSVKGGSISPPLSAIFTT |  | pEGFR inhibition in H292 cells (IC50) (human EGFR on cells [2]): 432 nM
8 | P54CR4-31 (designed binder, not shown: small tags and cut ends) LPAPKNLVVSEVTEDSLRLSWTAPDAAFDSFLIQYQESEKVGEAINLTVPGSERSYDLTGLKPGTEYTVSIYGVLGSYVFEHDVMLPLSAEFTT | 179 nM | 
